# Measurements as given in the supplement of paper PMC10567573.
# ± gives the standard deviation.
# Assay: protein stability index of a GFP-peptide fusion (GPS, HEK-293T) (PSI 1-6); higher = more stable
# [1] = treatment: DMSO, c terminus: a fixed tail appended
# [2] = treatment: MLN4924 1 uM, 8 h, c terminus: a fixed tail appended
# 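Note: 24-mer peptide tiles fused after GFP, lentivirally expressed, FACS-sorted into six equal bins by GFP/DsRed ratio, decoded by Illumina sequencing, PSI is the read-weighted mean bin number.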
Sequence,protein stability index [1],protein stability index [2],"protein stability index (treatment: DMSO, c terminus: native)","protein stability index (treatment: MLN4924 1 uM, 8 h, c terminus: native)"
LEDVERELDGPKQIFFGRRKDMIA [ZNF396],3.98 ± 0.3,4 ± 0.15,–,–
LEEAEGAVGYQPEYSKFCRMSYQD [NFE2L1],3.56 ± 0.4,3.05 ± 0.31,–,–
LEEEEEEEEEAEDEEVVATAGDRL [IRX6],5.71 ± 0.27,5.46 ± 0.32,–,–
LEKVECTPSQEHLKHQTVYRLLKC [FEM1A],2.85 ± 0.26,3.07 ± 0.38,–,–
LEQPFLSVFKKGRRRVPVRNLGKV [PLEKHN1],3.19 ± 0.31,3.56 ± 0.58,–,–
LEVEREAEKKREAKQRAKEAQERE [LRRC59],5.45 ± 0.42,5.63 ± 0.19,–,–
LEVMEEEELANLRASQREYEELRN [RSPH3],5.22 ± 0.43,5.09 ± 0.18,–,–
LEYRFYEQLGSGDGIPQVYYFGPC [CSNK1G3],2.19 ± 0.29,2.13 ± 0.2,–,–
LFDTKHDVYSFAIVIWGVLTQKKP [RIPK4],2.49 ± 0.56,2.72 ± 0.17,–,–
LFLDLLQSYKDLCERHEKGVLHKH [SNX8],2.49 ± 0.12,2.64 ± 0.37,–,–
LFSNSDHQRDGTLGALHTSSKPTA [SASS6],4.36 ± 0.27,4.51 ± 0.065,–,–
LGALHTSSKPTALPSASSAYFPGQ [SASS6],3.59 ± 0.29,3.67 ± 0.45,–,–
LGAQTQFDVKNDRYIVNGSHEANK [EIF5],4.8 ± 0.3,4.77 ± 0.2,–,–
LGDKGLSDTPYDSSASYEKENEMM [IKZF1],5.37 ± 0.14,5.26 ± 0.18,–,–
LGFARRNWGNGKRPNLETYYERVL [GDAP1],2.38 ± 0.38,2.36 ± 0.57,–,–
LGKIFDLIGLPPEDDWPRDVSLPR [CDK4],2.34 ± 0.5,2.42 ± 0.13,–,–
LGNFKDDLLNVCMRHVEKMCKADL [TRIM29],2.36 ± 0.13,2.47 ± 0.19,–,–
LGQHMVEQLLARGYAVNVFDIQQG [NSDHL],2.72 ± 0.9,2.22 ± 0.57,–,–
LGSAPLDQEPLLSIDLGTAHSAAV [NEK8],4.08 ± 0.22,4.11 ± 0.15,–,–
LGSDDINVVTCAAGILSNLTCNNY [CTNNB1],2.27 ± 0.22,2.37 ± 0.22,–,–
LHALKLRSPDASPSRAPPSTQEPQ [GNAS],4.54 ± 0.25,4.65 ± 0.1,–,–
LHAWEMKPYAVMVFQTEQKNLFRL [N4BP2L1],2.44 ± 0.61,2.41 ± 0.41,–,–

Sequence,protein stability index [1],protein stability index [2],"protein stability index (treatment: DMSO, c terminus: native)","protein stability index (treatment: MLN4924 1 uM, 8 h, c terminus: native)"
LILSREASWAKPHYEFNLSRMKFR [LCOR],2.27 ± 0.18,2.11 ± 0.28,–,–
LKDEEGKLKDLSTVTSLQVPVLKP [PPP2R2C],4.91 ± 0.17,5.02 ± 0.085,–,–
LKVRSHDPEEAIRHDVIVSIVTAA [PDS5B],2.43 ± 0.19,2.35 ± 0.27,–,–
LLATRIAVYLMTFLIVTVAWAAHT [TMEM175],3.5 ± 0.17,3.12 ± 0.24,–,–
LLDNPLCADVLFILQDQEHIFAHR [RHOBTB1],2.36 ± 0.35,2.17 ± 0.11,–,–
LLEEEEKQWGPLEREPVRGQCLDS [RTN2],5.1 ± 0.3,5.26 ± 0.077,–,–
LLKHPNIVRLHDSISEEGFHYLVF [CAMK2D],2.42 ± 0.32,2.2 ± 0.18,–,–
LLLENGAGINTHSNEFKESALTLA [ANKRD17],2.32 ± 0.54,2.76 ± 0.6,–,–
LLNTLSLAFVGGLPLAYQQTSAFA [TMEM175],3.2 ± 0.3,2.74 ± 0.42,–,–
LLPESGIVADIELENVLDPDSFYE [TFE3],4.47 ± 0.3,4.76 ± 0.49,–,–
LLQLPDTKVGSFMIRESETKKGFY [SLA],2.75 ± 0.25,2.95 ± 0.047,–,–
LLRDPADASEAHESSSRGEAGAPG [CHGB],5.45 ± 0.28,5.34 ± 0.24,–,–
LLRHRMNWLGRPSKVLSLQDLCCR [RAB40A],2.62 ± 0.27,2.71 ± 0.35,–,–
LLTLLPQLQEAWQQRTPSPVPGG [RSAD1],–,–,3.3 ± 0.21,2.83 ± 0.54
LLWATNEFSLVNVNLQRFGMNGQM [ETS2],2.9 ± 0.64,2.94 ± 0.49,–,–
LLYNRSNNKYSYTSNSDDNMLKNI [KCTD10],2.52 ± 0.28,2.74 ± 0.6,–,–
LMQVHASRSNNMGIVGGFTQMIRE [SLC25A25],2.75 ± 0.21,2.94 ± 0.24,–,–
LMRAQRNYMVQTEDQYIFIHDALL [PTPRD],2.48 ± 0.46,2.41 ± 0.53,–,–
LNEDTIQDVVQAADLLLLTDLKTL [GAN],3.03 ± 0.31,3.16 ± 0.44,–,–
LNFQIEHHLFPTMPRHNYHKVAPL [FADS1],1.98 ± 0.33,2.02 ± 0.51,–,–
LNGTKVAEGHKASFCLEDTECEGD [LOXL2],5.41 ± 0.33,5.59 ± 0.12,–,–
LNMEEPPVEEPEPKPDRLLVLKVL [SLC19A2],3.5 ± 0.56,3.8 ± 0.25,–,–
